In patent publication US20240400654A1:
Where “and” joins values, the source holds several entries; their conditions need not be identical. Identical values can stand only once.

What was measured:
[1] = target: HRgpA-6H (Porphyromonas gingivalis) (UniProt P28784); test: ELISA on coated HRgpA-6H, OD relative to parental Fab
[2] = target: HRgpA-6H (Porphyromonas gingivalis) (UniProt P28784); test: ELISA, FASEBA Fab supernatant on coated HRgpA-6H

Chain of UniProt P28784 (P28784 228-860 limits assumed): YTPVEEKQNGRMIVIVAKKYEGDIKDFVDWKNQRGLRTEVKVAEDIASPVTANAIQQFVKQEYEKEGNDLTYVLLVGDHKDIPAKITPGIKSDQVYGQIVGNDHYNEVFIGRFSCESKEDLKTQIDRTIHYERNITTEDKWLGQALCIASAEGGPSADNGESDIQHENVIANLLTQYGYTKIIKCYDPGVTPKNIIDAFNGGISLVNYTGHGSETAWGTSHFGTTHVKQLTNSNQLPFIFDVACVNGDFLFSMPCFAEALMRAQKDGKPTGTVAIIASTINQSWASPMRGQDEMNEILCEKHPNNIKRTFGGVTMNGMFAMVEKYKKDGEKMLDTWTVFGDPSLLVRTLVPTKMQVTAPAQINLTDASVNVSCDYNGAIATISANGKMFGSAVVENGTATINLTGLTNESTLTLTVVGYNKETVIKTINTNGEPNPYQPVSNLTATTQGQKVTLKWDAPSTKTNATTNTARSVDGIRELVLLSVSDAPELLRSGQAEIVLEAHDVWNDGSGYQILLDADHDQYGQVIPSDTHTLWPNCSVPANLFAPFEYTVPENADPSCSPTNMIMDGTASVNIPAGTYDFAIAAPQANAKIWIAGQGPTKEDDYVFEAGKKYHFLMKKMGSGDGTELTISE

Binder	Ratio OD(Variant)/OD(WT) [1]	OD450 nm [2]
KB001 mouse Fab variant VL L55Q (Fab, V domains shown) VH: EVQLKQSGPGLVAPSQSLSITCTVSGFSLSIYSVHWVRQPPGKGLEWLGMIWGGGSSDYNSALKSRLSISKDNSKSQVFLKMNSLQTDDTAMYYCARNGNFYAMDYWGQGTSVTVSS VL: QIVLTQSPAIMSASLGERVTMTCTASSSVSSSFLHWYQQKPGSSPQLWIYSTSNQASGVPARFSGSGSGTSYSLTISSMEAEDAATYYCHQYHHSPYIYTFGGGTKLEIK	0.845 fold	0.662
KB001 mouse Fab variant VL L55H (Fab, V domains shown) VH: EVQLKQSGPGLVAPSQSLSITCTVSGFSLSIYSVHWVRQPPGKGLEWLGMIWGGGSSDYNSALKSRLSISKDNSKSQVFLKMNSLQTDDTAMYYCARNGNFYAMDYWGQGTSVTVSS VL: QIVLTQSPAIMSASLGERVTMTCTASSSVSSSFLHWYQQKPGSSPQLWIYSTSNHASGVPARFSGSGSGTSYSLTISSMEAEDAATYYCHQYHHSPYIYTFGGGTKLEIK	0.817 fold	0.64
KB001 mouse Fab variant VL L55S (Fab, V domains shown) VH: EVQLKQSGPGLVAPSQSLSITCTVSGFSLSIYSVHWVRQPPGKGLEWLGMIWGGGSSDYNSALKSRLSISKDNSKSQVFLKMNSLQTDDTAMYYCARNGNFYAMDYWGQGTSVTVSS VL: QIVLTQSPAIMSASLGERVTMTCTASSSVSSSFLHWYQQKPGSSPQLWIYSTSNSASGVPARFSGSGSGTSYSLTISSMEAEDAATYYCHQYHHSPYIYTFGGGTKLEIK	0.836 fold	0.655
KB001 mouse Fab variant VL A56T (Fab, V domains shown) VH: EVQLKQSGPGLVAPSQSLSITCTVSGFSLSIYSVHWVRQPPGKGLEWLGMIWGGGSSDYNSALKSRLSISKDNSKSQVFLKMNSLQTDDTAMYYCARNGNFYAMDYWGQGTSVTVSS VL: QIVLTQSPAIMSASLGERVTMTCTASSSVSSSFLHWYQQKPGSSPQLWIYSTSNLTSGVPARFSGSGSGTSYSLTISSMEAEDAATYYCHQYHHSPYIYTFGGGTKLEIK	0.896 fold	0.731
KB001 mouse Fab variant VL A56N (Fab, V domains shown) VH: EVQLKQSGPGLVAPSQSLSITCTVSGFSLSIYSVHWVRQPPGKGLEWLGMIWGGGSSDYNSALKSRLSISKDNSKSQVFLKMNSLQTDDTAMYYCARNGNFYAMDYWGQGTSVTVSS VL: QIVLTQSPAIMSASLGERVTMTCTASSSVSSSFLHWYQQKPGSSPQLWIYSTSNLNSGVPARFSGSGSGTSYSLTISSMEAEDAATYYCHQYHHSPYIYTFGGGTKLEIK	0.873 fold and 0.95 fold	0.712 and 0.775
KB001 mouse Fab variant VL A56Q (Fab, V domains shown) VH: EVQLKQSGPGLVAPSQSLSITCTVSGFSLSIYSVHWVRQPPGKGLEWLGMIWGGGSSDYNSALKSRLSISKDNSKSQVFLKMNSLQTDDTAMYYCARNGNFYAMDYWGQGTSVTVSS VL: QIVLTQSPAIMSASLGERVTMTCTASSSVSSSFLHWYQQKPGSSPQLWIYSTSNLQSGVPARFSGSGSGTSYSLTISSMEAEDAATYYCHQYHHSPYIYTFGGGTKLEIK	0.865 fold	0.705
KB001 mouse Fab variant VL A56R (Fab, V domains shown) VH: EVQLKQSGPGLVAPSQSLSITCTVSGFSLSIYSVHWVRQPPGKGLEWLGMIWGGGSSDYNSALKSRLSISKDNSKSQVFLKMNSLQTDDTAMYYCARNGNFYAMDYWGQGTSVTVSS VL: QIVLTQSPAIMSASLGERVTMTCTASSSVSSSFLHWYQQKPGSSPQLWIYSTSNLRSGVPARFSGSGSGTSYSLTISSMEAEDAATYYCHQYHHSPYIYTFGGGTKLEIK	0.893 fold and 0.9 fold and 0.921 fold	0.728 and 0.734 and 0.751
KB001 mouse Fab variant VL A56V (Fab, V domains shown) VH: EVQLKQSGPGLVAPSQSLSITCTVSGFSLSIYSVHWVRQPPGKGLEWLGMIWGGGSSDYNSALKSRLSISKDNSKSQVFLKMNSLQTDDTAMYYCARNGNFYAMDYWGQGTSVTVSS VL: QIVLTQSPAIMSASLGERVTMTCTASSSVSSSFLHWYQQKPGSSPQLWIYSTSNLVSGVPARFSGSGSGTSYSLTISSMEAEDAATYYCHQYHHSPYIYTFGGGTKLEIK	0.974 fold and 0.975 fold	0.794 and 0.795
